# Assay results: PMC11997982
# B1: FAM-dsRNA 16 bp (dsRNA)
# RNA 1: CCAUCCUCUACAGGCG
# RNA 2: CGCCUGUAGAGGAUGG
# How the values were obtained:
# GST-RBD WT [1] = target: T1, GST-RBD WT (Influenza A virus A/Brevig …, UniProt Q99AU3 1-85); assay: EMSA (fEMSA); […], pH 8.0, 1 h at room temperature; […]; settings: protein: recombinant; tags: GST; chain copies: 2; label: 5'-FAM (FITC) on both strands; blunt
# Udorn His-GST-ED WT [2] = target: T2, Udorn His-GST-ED WT (Influenza A virus A/Udorn/307/1972, UniProt P03495 86-237); assay: as above; settings: protein: recombinant; tags: N-term 10xHis-GST; label: 5'-FAM (FITC) on both strands; blunt
# His-RBD WT [3] = target: T3, His-RBD WT (Influenza A virus A/Brevig …, UniProt Q99AU3 1-85); assay: as above; settings: protein: recombinant; tags: N-term 10xHis; chain copies: 2; label: 5'-FAM (FITC) on both strands; blunt
# His-GST-ED WT [4] = target: T4, His-GST-ED WT (Influenza A virus A/Brevig …, UniProt Q99AU3 86-230); assay: as above; settings: protein: recombinant; tags: N-term 10xHis-GST; chain copies: 3; label: 5'-FAM (FITC) on both strands; blunt
# His-GST-RBD WT [5] = target: T5, His-GST-RBD WT (Influenza A virus A/Brevig …, UniProt Q99AU3 1-85); assay: as above; settings: protein: recombinant; tags: N-term 10xHis-GST; chain copies: 2; label: 5'-FAM (FITC) on both strands; blunt
# His-RBD WT [6] = target: T3, His-RBD WT; assay: fluorescence polarization; biphasic, first transition; […], pH 8.0, 1 h at room temperature; […]; settings: protein: recombinant; tags: N-term 10xHis; chain copies: 2; label: 5'-FAM (FITC) on both strands; blunt
# His-RBD WT [7] = target: T3, His-RBD WT; assay: fluorescence polarization; biphasic, second transition; […], pH 8.0, 1 h at room temperature; […]; settings: protein: recombinant; tags: N-term 10xHis; chain copies: 2; label: 5'-FAM (FITC) on both strands; blunt
# Udorn His-GST-ED WT [8] = target: T2, Udorn His-GST-ED WT; assay: fluorescence polarization; protein prep B, A260/280 0.85; […], pH 8.0, 1 h at room temperature; […]; settings: protein: recombinant; tags: N-term 10xHis-GST; label: 5'-FAM (FITC) on both strands; blunt
# GST-RBD WT [9] = target: T1, GST-RBD WT; assay: fluorescence polarization; […], pH 8.0, 1 h at room temperature; […]; settings: protein: recombinant; tags: GST; chain copies: 2; label: 5'-FAM (FITC) on both strands; blunt
# Udorn His-GST-ED WT [10] = target: T2, Udorn His-GST-ED WT; assay: as above; settings: protein: recombinant; tags: N-term 10xHis-GST; label: 5'-FAM (FITC) on both strands; blunt
# His-GST-ED WT [11] = target: T4, His-GST-ED WT; assay: as above; settings: protein: recombinant; tags: N-term 10xHis-GST; chain copies: 3; label: 5'-FAM (FITC) on both strands; blunt
# His-GST-RBD WT [12] = target: T5, His-GST-RBD WT; assay: as above; settings: protein: recombinant; tags: N-term 10xHis-GST; chain copies: 2; label: 5'-FAM (FITC) on both strands; blunt
# T2 sequence (P03495 86-237): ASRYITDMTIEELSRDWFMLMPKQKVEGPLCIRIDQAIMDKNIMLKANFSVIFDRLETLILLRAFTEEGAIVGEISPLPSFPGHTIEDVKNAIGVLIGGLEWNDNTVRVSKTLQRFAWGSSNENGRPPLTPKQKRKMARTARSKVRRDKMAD
# T3 sequence (Q99AU3 1-85): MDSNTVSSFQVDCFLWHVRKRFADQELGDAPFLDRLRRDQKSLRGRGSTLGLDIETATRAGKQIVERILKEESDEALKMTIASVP
# T4 sequence (Q99AU3 86-230): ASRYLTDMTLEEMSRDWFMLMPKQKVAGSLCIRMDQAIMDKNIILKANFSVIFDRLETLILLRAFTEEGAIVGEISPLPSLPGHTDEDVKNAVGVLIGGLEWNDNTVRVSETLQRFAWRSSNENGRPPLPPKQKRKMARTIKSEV
# T5 sequence (Q99AU3 1-85): as the sequence (Q99AU3 1-85) above
# T1 sequence (Q99AU3 1-85): as above
binder,measurement,setting,value
B1,Kd,GST-RBD WT [1],0.1 ± 0.032 µM
same,Kd,Udorn His-GST-ED WT [2],0.17 ± 0.035 µM
same,Kd,His-RBD WT [3],0.055 ± 0.016 µM
same,Kd,His-GST-ED WT [4],3.5 ± 0.8 µM
same,Kd,His-GST-RBD WT [5],0.18 ± 0.042 µM
same,Kd,His-RBD WT [6],0.083 ± 0.011 µM
same,Kd,His-RBD WT [7],2.16 ± 0.46 µM
same,Kd,Udorn His-GST-ED WT [8],0.196 ± 0.023 µM
same,Kd,GST-RBD WT [9],0.076 ± 0.005 µM
same,Kd,Udorn His-GST-ED WT [10],0.18 ± 0.021 µM
same,Kd,His-GST-ED WT [11],1.9 ± 0.25 µM
same,Kd,His-GST-RBD WT [12],0.125 ± 0.009 µM
